Reference: PMC8136821 (Nucleic Acids Research, 2021)

Biological target: RhpA DEAD-box RNA helicase of H. pylori, recombinant, His-tagged (H. pylori)
Experiment: SPR

B1: H. pylori RNase R (HpRNase R), recombinant, His-tagged (enzyme)
chain: MQGFLRSLFFGVKKIPKPFAPLVEKGVLKEALELKKDRYFLKEGFDIGKVEKVKDKAFFISLAKNYPKDPLIKNLPPSFKTDALILCQIECSKKRPIAFFKAALLNADHTMIAYLAKKNNQIVAIPFKEPFKKPVSLKHSQKSLLELPRHCVVKIDTKKREISEILGALEDPLIDENLSLSLFDRVKDFSKDCLNLAQHYAQLKASDFKDRINYSHIPFITIDPKDAKDFDDAIFYDQEKRVLFVAVADVSEFVPKHSSLDKEARVRGFSVYFPNSVYPMLPLSLSQGACSLKAFEKRLALVYEIPLDNLKNARLSQGVIEVRANCTYEEINHFLSANQSSLDKDLQQSLLGFLEMALKLKKERLKKGFNFNSFENKLYLNKEGRIEKIETEKESDAHTLIEEAMLLANQSSARLLDEHFHNKGIYRTHKEPSLEQQKRLYDKLFDYEIVRPKNMGFFPFLEHALKIAKEKSIEREVSRLIIKSQNLALYSPLQESHFGLGFASYTHFTSPIRRYSDLALHRLLKELLFYQAKGCSYLLEETPELCAELNALQKKAALIERDFIKRKFARLALELLEKEFLGVVLEVKDWVVVGLKEFIGLKVLVKTNKVFKPLEKVRVTITHADLILGQVRGEITERIKEHVS
  Kd: 29 ± 4.4 nM
  kon: 35000 M⁻¹ s⁻¹
